Experimental data as given in publication PMC2763353.

Experiments:
Assay in all cases: EMSA
[1] = biological target: Pax5(1-149) Q22A;GABPα(311-430) (human;, UniProt Q02548;Q00422 1-149;311-430, Q22A|)
[2] = biological target: Pax5(1-149) WT;GABPα(311-430);GABPβ1(1-157) (human;;, UniProt Q02548;Q00422;Q00420 1-149;311-430;1-157, ||)
Ets-1(331-440) = biological target: T1, Ets-1(331-440) (murine, UniProt P27577 331-440)
T1 sequence: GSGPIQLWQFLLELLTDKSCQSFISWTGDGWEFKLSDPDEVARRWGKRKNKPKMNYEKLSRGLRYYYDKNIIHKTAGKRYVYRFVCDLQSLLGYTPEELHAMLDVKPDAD

[3] = biological target: Pax5(1-149) Q22A;GABPα(311-430);GABPβ1(1-157) (human;;, UniProt Q02548;Q00422;Q00420 1-149;311-430;1-157, Q22A||)
[4] = biological target: Pax5(1-149) Q22A;Ets-1(331-440) (human;murine, UniProt Q02548;P27577 1-149;331-440, Q22A|)
[5] = biological target: Pax5(1-149) Q22A;Ets-1(280-440) (human;murine, UniProt Q02548;P27577 1-149;280-440, Q22A|)
Pax5(1-149) WT = Pax5(1-149) WT (human, UniProt Q02548 1-149)
[6] = biological target: GABPα(311-430);GABPβ1(1-157) (;, UniProt Q00422;Q00420 311-430;1-157, |)
Pax5(1-149) Q22A = Pax5(1-149) Q22A (human, UniProt Q02548 1-149, Q22A)
[7] = biological target: Pax5(1-149) WT;GABPα(311-430) (human;, UniProt Q02548;Q00422 1-149;311-430, |)
[8] = biological target: Pax5(1-149) WT;Ets-1(280-440) (human;murine, UniProt Q02548;P27577 1-149;280-440, |)
[9] = biological target: Pax5(1-149) WT;Ets-1(331-440) (human;murine, UniProt Q02548;P27577 1-149;331-440, |)
Ets-1(280-440) = biological target: T2, Ets-1(280-440) (murine, UniProt P27577 280-440)
T2 sequence: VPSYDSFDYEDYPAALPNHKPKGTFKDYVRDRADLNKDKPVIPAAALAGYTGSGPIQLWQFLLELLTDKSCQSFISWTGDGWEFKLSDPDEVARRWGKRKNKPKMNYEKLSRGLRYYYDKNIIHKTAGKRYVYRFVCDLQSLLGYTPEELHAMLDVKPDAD

Sequence of Pax5(1-149) WT;Ets-1(280-440) (Q02548 1-149, chain 1 of 2, one chain of several): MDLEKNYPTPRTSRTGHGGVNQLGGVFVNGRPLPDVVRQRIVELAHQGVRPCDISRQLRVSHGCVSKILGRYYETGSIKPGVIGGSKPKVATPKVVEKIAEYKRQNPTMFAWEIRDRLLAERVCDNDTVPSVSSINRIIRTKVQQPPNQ
Sequence of Pax5(1-149) WT;GABPα(311-430);GABPβ1(1-157) (Q02548 1-149, chain 1 of 3): as the sequence (Q02548 1-149, chain 1 of 2, one chain of several) above
Sequence of Pax5(1-149) WT;GABPα(311-430);GABPβ1(1-157) (Q00422 311-430, chain 2 of 3): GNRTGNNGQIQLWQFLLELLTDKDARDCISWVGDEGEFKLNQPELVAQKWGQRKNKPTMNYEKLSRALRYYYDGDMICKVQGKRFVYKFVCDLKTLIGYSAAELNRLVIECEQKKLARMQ
Sequence of Pax5(1-149) WT;GABPα(311-430);GABPβ1(1-157) (Q00420 1-157, chain 3 of 3): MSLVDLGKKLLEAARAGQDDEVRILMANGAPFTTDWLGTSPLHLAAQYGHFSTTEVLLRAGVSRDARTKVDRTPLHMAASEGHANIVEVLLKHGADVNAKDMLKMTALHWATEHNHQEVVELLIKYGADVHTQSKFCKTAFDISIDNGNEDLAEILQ
Sequence of Pax5(1-149) WT;Ets-1(331-440) (Q02548 1-149, chain 1 of 2, one chain of several): as the sequence (Q02548 1-149, chain 1 of 2, one chain of several) above
Sequence of Pax5(1-149) WT;GABPα(311-430) (Q02548 1-149, chain 1 of 2): as the sequence (Q02548 1-149, chain 1 of 2, one chain of several) above
Sequence of Pax5(1-149) WT;GABPα(311-430) (Q00422 311-430, chain 2 of 2): as the sequence (Q00422 311-430, chain 2 of 3) above
Sequence of Pax5(1-149) WT (Q02548 1-149): as the sequence (Q02548 1-149, chain 1 of 2, one chain of several) above
Sequence of GABPα(311-430);GABPβ1(1-157) (Q00422 311-430, chain 1 of 2): as the sequence (Q00422 311-430, chain 2 of 3) above
Sequence of GABPα(311-430);GABPβ1(1-157) (Q00420 1-157, chain 2 of 2): as the sequence (Q00420 1-157, chain 3 of 3) above
Sequence of Pax5(1-149) Q22A (Q02548 1-149 Q22A): as the sequence (Q02548 1-149, chain 1 of 2, one chain of several) above, with Q22A counted along it
Sequence of Pax5(1-149) Q22A;GABPα(311-430);GABPβ1(1-157) (Q02548 1-149 Q22A, chain 1 of 3): as the sequence (Q02548 1-149, chain 1 of 2, one chain of several) above, with Q22A counted along it
Sequence of Pax5(1-149) Q22A;GABPα(311-430);GABPβ1(1-157) (Q00422 311-430, chain 2 of 3): as the sequence (Q00422 311-430, chain 2 of 3) above
Sequence of Pax5(1-149) Q22A;GABPα(311-430);GABPβ1(1-157) (Q00420 1-157, chain 3 of 3): as the sequence (Q00420 1-157, chain 3 of 3) above
Sequence of Pax5(1-149) Q22A;GABPα(311-430) (Q02548 1-149 Q22A, chain 1 of 2): as the sequence (Q02548 1-149, chain 1 of 2, one chain of several) above, with Q22A counted along it
Sequence of Pax5(1-149) Q22A;GABPα(311-430) (Q00422 311-430, chain 2 of 2): as the sequence (Q00422 311-430, chain 2 of 3) above
Sequence of Pax5(1-149) Q22A;Ets-1(331-440) (Q02548 1-149 Q22A, one chain of several): as the sequence (Q02548 1-149, chain 1 of 2, one chain of several) above, with Q22A counted along it
Sequence of Pax5(1-149) Q22A;Ets-1(280-440) (Q02548 1-149 Q22A, chain 1 of 2, one chain of several): as the sequence (Q02548 1-149, chain 1 of 2, one chain of several) above, with Q22A counted along it

B1: P5-EBS probe (dsDNA)
DNA 1: TCGAAGGGCCACTGGAGCCCATCTCCGGCACGGC
DNA 2: TCGAGCCGTGCCGGAGATGGGCTCCAGTGGCCCT
Kd [1]: 6.14 ± 5.38 nM
Kd [2]: 4.08 ± 0.38 nM
Kd (Ets-1(331-440)): 136 ± 5.29 nM
Kd [3]: 3.36 ± 0.14 nM
Kd [4]: 7.89 ± 0.76 nM
Kd [5]: 162 ± 44.3 nM
Kd (Pax5(1-149) WT): 2.4 ± 0.47 nM
Kd [6]: 234 ± 24.8 nM
Kd (Pax5(1-149) Q22A): 1.72 ± 0.37 nM
Kd [7]: 17.8 ± 0.74 nM
Kd [8]: 0.49 ± 0.05 nM
Kd [9]: 0.89 ± 0.14 nM
binding result (Ets-1(280-440)): no binding
